This experiment addresses T1, GFP-tagged SMN E134K (human, UniProt Q16637 1-294, E134K).
T1 construct: survivor of motor neuron protein (SMN) with the clinically defined SMA patient mutation E134K, made from GFP-SMN; source: HeLa, transfected (FuGENE HD), in lysate
Kind of experiment: co-IP; HeLa cells transfected 24 h with GFP vector or GFP-tagged coilin or SMN constructs; lysate in mRIPA buffer immunoprecipitated with anti-GFP antibody; endogenous dyskerin or NAF1 detected by western blot. The note with it: partners not purified. On the technique in general: In western blotting, separated proteins are transferred to a membrane and probed.

T1 sequence (Q16637 whole entry E134K): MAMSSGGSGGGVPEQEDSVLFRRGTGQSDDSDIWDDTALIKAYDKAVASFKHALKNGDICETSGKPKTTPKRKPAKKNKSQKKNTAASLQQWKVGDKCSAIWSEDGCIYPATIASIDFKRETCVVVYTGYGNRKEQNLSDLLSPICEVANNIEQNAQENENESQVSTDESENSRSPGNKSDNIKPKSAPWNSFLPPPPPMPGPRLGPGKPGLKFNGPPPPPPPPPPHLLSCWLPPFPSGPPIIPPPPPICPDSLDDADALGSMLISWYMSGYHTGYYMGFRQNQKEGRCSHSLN

B1: dyskerin (natural protein, human (endogenous in HeLa), UniProt O60832 1-514, looked up)
chain: MADAEVIILPKKHKKKKERKSLPEEDVAEIQHAEEFLIKPESKVAKLDTSQWPLLLKNFDKLNVRTTHYTPLACGSNPLKREIGDYIRTGFINLDKPSNPSSHEVVAWIRRILRVEKTGHSGTLDPKVTGCLIVCIERATRLVKSQQSAGKEYVGIVRLHNAIEGGTQLSRALETLTGALFQRPPLIAAVKRQLRVRTIYESKMIEYDPERRLGIFWVSCEAGTYIRTLCVHLGLLLGVGGQMQELRRVRSGVMSEKDHMVTMHDVLDAQWLYDNHKDESYLRRVVYPLEKLLTSHKRLVMKDSAVNAICYGAKIMLPGVLRYEDGIEVNQEIVVITTKGEAICMAIALMTTAVISTCDHGIVAKIKRVIMERDTYPRKWGLGPKASQKKLMIKQGLLDKHGKPTDSTPATWKQEYVDYSESAKKEVVAEVVKAPQVVAEAAKTAKRKRESESESDETPPAAPQLIKKEKKKSKKDKKAKAGLESGAEPGDGDSDTTKKKKKKKKAKEVELVSE
notes: dyskerin, endogenous in HeLa cells; also called telomerase and box H/ACA scaRNP core protein dyskerin; source: endogenous, HeLa lysate
Consider B1, for which the “decrease of dyskerin in the SMN complex relative to WT SMN” value is ~50%.

Source of the values: publication PMC4920197, “SMN and coilin negatively regulate dyskerin association with telomerase RNA” (Biology Open, 2016).
